Experimental data taken from article PMC9482650, “Quantitative fragmentomics allow affinity mapping of interactomes” (Nature Communications, 2022).

T1: MPDZ_12, O75970
T1 sequence (O75970 1857-1958, limits assumed, looked up): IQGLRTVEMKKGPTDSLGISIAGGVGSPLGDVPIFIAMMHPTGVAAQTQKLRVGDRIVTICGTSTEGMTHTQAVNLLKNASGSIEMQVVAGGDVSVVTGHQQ

T2: MPP7, Q5T2T1
T2 sequence (Q5T2T1 134-230, limits assumed, looked up): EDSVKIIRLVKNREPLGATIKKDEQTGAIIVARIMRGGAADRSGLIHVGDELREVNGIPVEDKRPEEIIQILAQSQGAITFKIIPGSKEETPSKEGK

T3: DFNB31_3, Q9P202
T3 sequence (Q9P202 811-907, limits assumed, looked up): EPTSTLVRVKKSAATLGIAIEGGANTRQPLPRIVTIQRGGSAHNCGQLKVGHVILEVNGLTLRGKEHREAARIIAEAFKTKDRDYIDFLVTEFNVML

T4: GRIP1_4, Q9Y3R0
T4 sequence (Q9Y3R0 467-571, limits assumed, looked up): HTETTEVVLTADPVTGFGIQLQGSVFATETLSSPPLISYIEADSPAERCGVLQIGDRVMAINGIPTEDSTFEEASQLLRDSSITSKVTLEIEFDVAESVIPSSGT

T5: DLG3_2, Q92796
T5 sequence (Q92796 221-321, limits assumed, looked up): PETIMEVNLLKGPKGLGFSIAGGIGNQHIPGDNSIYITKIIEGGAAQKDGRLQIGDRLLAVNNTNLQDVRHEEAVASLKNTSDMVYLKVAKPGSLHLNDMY

T6: SNTA1, Q13424
T6 sequence (Q13424 82-180, limits assumed, looked up): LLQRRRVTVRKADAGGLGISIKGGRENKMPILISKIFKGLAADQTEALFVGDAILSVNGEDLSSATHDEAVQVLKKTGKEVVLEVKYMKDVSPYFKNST

T7: DFNB31_2, Q9P202
T7 sequence (Q9P202 274-371, limits assumed, looked up): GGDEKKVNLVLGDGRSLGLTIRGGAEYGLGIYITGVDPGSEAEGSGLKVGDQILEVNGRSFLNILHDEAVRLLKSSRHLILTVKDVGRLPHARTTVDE

T8: MPDZ_10, O75970
T8 sequence (O75970 1624-1722, limits assumed, looked up): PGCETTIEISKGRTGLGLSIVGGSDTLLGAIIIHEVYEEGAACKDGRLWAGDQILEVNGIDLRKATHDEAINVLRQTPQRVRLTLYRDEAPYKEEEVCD

T9: MPDZ_5, O75970
T9 sequence (O75970 695-796, limits assumed, looked up): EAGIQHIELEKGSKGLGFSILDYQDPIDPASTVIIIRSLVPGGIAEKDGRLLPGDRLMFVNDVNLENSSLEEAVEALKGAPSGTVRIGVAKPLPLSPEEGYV

T10: TX1BP3, O14907
T10 sequence (O14907 10-122, limits assumed, looked up): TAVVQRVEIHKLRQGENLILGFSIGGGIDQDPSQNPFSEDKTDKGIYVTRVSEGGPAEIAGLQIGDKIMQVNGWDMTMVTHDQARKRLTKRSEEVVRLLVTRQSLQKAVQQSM

T11: PDZD2_2, O15018
T11 sequence (O15018 329-429, limits assumed, looked up): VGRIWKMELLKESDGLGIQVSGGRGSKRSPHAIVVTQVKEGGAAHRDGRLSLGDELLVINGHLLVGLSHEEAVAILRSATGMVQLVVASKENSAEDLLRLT

T12: ARHGAP21, Q5T5U3
T12 sequence (Q5T5U3 45-169, limits assumed, looked up): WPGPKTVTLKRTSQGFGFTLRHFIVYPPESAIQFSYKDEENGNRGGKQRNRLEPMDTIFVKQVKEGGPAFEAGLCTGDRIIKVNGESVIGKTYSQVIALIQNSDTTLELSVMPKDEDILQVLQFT

T13: PDZRN3_1, Q9UPQ7
T13 sequence (Q9UPQ7 244-349, limits assumed, looked up): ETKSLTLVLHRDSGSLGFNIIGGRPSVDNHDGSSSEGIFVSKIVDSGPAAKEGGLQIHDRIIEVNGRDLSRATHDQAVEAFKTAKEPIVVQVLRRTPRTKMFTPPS


What was measured:
Assay in all cases: holdup assay
Set-up in all cases: key: below the threshold = too weak to quantify, mostly under pKd 3.1 to 4
Conditions in all cases: plain residues with an end cap or a label only (N-terminal biotin on a linker: ado-ado)
[1] = target: PDLIM1, O00151
PDLIM1, O00151, sequence (O00151 1-87): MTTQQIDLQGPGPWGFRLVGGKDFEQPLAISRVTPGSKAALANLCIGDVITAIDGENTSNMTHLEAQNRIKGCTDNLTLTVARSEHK

[2] = target: T1, MPDZ_12, O75970
[3] = target: IL16_1, Q14005
IL16_1, Q14005, sequence (Q14005 210-306): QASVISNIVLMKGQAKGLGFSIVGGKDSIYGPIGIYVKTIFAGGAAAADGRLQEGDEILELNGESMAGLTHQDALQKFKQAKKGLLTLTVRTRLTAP

[4] = target: Inadl_3, Q8NI35
Inadl_3, Q8NI35, sequence (Q8NI35 359-469): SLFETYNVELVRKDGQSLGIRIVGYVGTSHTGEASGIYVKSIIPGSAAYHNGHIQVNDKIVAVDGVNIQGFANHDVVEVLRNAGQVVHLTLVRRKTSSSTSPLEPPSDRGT

[5] = target: T2, MPP7, Q5T2T1
[6] = target: T3, DFNB31_3, Q9P202
[7] = target: HTRA1, Q92743
HTRA1, Q92743, sequence (Q92743 360-477): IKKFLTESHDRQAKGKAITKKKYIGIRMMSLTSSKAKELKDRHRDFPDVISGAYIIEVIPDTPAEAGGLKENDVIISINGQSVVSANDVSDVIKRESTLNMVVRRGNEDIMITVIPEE

[8] = target: T4, GRIP1_4, Q9Y3R0
[9] = target: TJP1_2, Q07157
TJP1_2, Q07157, sequence (Q07157 181-274): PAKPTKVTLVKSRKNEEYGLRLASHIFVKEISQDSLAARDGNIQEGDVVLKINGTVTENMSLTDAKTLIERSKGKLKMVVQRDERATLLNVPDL

[10] = target: Inadl_4, Q8NI35
Inadl_4, Q8NI35, sequence (Q8NI35 547-651): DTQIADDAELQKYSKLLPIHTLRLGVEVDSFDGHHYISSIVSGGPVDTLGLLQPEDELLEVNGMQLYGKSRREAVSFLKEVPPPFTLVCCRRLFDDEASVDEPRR

[11] = target: T5, DLG3_2, Q92796
[12] = target: T6, SNTA1, Q13424
[13] = target: T7, DFNB31_2, Q9P202
[14] = target: T8, MPDZ_10, O75970
[15] = target: FRMPD3, Q5JV73
FRMPD3, Q5JV73, sequence (Q5JV73 12-100): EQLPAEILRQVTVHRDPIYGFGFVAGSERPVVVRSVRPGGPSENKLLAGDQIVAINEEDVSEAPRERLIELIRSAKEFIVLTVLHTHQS

[16] = target: MAGI3_2, Q5TCQ9
MAGI3_2, Q5TCQ9, sequence (Q5TCQ9 398-503): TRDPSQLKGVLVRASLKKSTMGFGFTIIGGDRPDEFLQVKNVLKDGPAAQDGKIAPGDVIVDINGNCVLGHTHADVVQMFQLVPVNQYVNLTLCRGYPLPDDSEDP

[17] = target: T9, MPDZ_5, O75970
[18] = target: T10, TX1BP3, O14907
[19] = target: GRIP2_6, Q9C0E4
GRIP2_6, Q9C0E4, sequence (Q9C0E4 648-740): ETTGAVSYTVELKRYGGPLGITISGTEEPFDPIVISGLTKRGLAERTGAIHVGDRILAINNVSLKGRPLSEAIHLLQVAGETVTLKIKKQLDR

[20] = target: MAGI2_2, Q86UL8
MAGI2_2, Q86UL8, sequence (Q86UL8 410-522): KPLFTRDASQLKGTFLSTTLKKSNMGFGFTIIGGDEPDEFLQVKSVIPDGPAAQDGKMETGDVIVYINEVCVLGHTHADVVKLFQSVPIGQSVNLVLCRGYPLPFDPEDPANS

[21] = target: LIMK2, P53671
LIMK2, P53671, sequence (P53671 143-248): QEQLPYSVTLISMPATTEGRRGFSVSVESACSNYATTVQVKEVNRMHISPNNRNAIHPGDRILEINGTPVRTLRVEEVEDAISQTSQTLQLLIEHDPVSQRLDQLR

[22] = target: T11, PDZD2_2, O15018
[23] = target: T12, ARHGAP21, Q5T5U3
[24] = target: T13, PDZRN3_1, Q9UPQ7

Binder | pKd [1] | pKd [2] | pKd [3] | pKd [4] | pKd [5] | pKd [6] | pKd [7] | pKd [8] | pKd [9] | pKd [10] | pKd [11] | pKd [12] | pKd [13] | pKd [14] | pKd [15] | pKd [16] | pKd [17] | pKd [18] | pKd [19] | pKd [20] | further results
DDASLPVSDV [PLEKHA1, Q9HB21] | 3.57 | below the threshold | 3.89 | below the threshold | below the threshold | 4.54 | below the threshold | below the threshold | below the threshold | below the threshold | below the threshold | 4.44 | below the threshold | 3.91 | below the threshold | below the threshold | below the threshold | 3.84 | below the threshold | below the threshold | pKd [21]: below the threshold; pKd [22]: 5.49; pKd [23]: 3.5; pKd [24]: below the threshold
SPDRDRESIV [SCN5A, Q14524] | below the threshold | below the threshold | 5.08 | 3.56 | below the threshold | 4.06 | 4.51 | below the threshold | 3.49 | below the threshold | 4.57 | 6.16 | below the threshold | 3.55 | below the threshold | 4.9 | below the threshold | 4.5 | below the threshold | 4.26 | pKd [21]: below the threshold; pKd [22]: 5.4; pKd [23]: 3.91; pKd [24]: 3.91
PPGKHLVTEV [KCNA7, Q96RP8] | below the threshold | 3.88 | 3.5 | 3.7 | below the threshold | 4.01 | 4.84 | below the threshold | below the threshold | below the threshold | 5.19 | 3.95 | below the threshold | below the threshold | below the threshold | 4.71 | below the threshold | 4.67 | below the threshold | 4.32 | pKd [21]: below the threshold; pKd [22]: 4.62; pKd [23]: below the threshold; pKd [24]: below the threshold
